Key:
BY4741 yeast = assay: Saccharomyces cerevisiae growth inhibition assay (galactose-inducible over-expression of C-terminus constructs); format: cell-based; settings: 4 days, 28° C.; for yeast growth with gene expression induced: BY4741, galactose as carbon source
Experimental: Constructs were created in which the C-terminal 92 AA of YSS, the C-terminal 64 AA of YSS, the C-terminal 66 AA of ASS, the C-terminal 92 AA of YSS in which the 26 AA domain is replaced by the corresponding of ASS or BSS, and the C-terminus of either ASS or BSS in which the 26 AA domain is replaced by the corresponding of YSS were cloned into the pESC-Ura (Gal1 and Gal10 promoters) vector. Constructs were transformed into BY4741 yeast and positive transformants were grown in 2 mL of Yeast-Synthetic Drop-out medium for 4 days. Serial dilutions (Corresponding to O.D.600=0.5, 0.1, 0.02, and 0.004) were plated on selection media containing either glucose or galactose as the carbon source. Pictures were taken after 4 days growth at 28° C.
To test this possibility, a gene coding for the 92 carboxy terminal residues of the yeast squalene synthase was inserted into a galactose inducible expression vector and the recombinant vector introduced into a wild type yeast (BY4741) (FIG. 7). When grown on glucose, expression of the 92 carboxy-terminal squalene synthase gene was suppressed and the transformed yeast grew normally. […] If a plant complementary carboxy-terminal gene was substituted for the yeast, no adverse effects were noted. When the 26 amino acid linker domain was deleted from the yeast gene construct, growth also was not impaired.
Constructs to be tested in S. cerevisiae were created using the pESC-Leu vector (Agilent) which harbors the Gal1/Gal10 divergent promoter to allow for galactose induction of gene expression. Primers used to create these constructs are listed in Table 4 (restriction sites, if any, in bold). YSS-92 was created by PCR amplifying a portion of the YSS gene corresponding to the 92 C-terminal amino acids using the primer sets, YSS-92 EcoRI For and YSS NotI Rev, and YSS-92 BamHI For and YSS HindIII Rev, and cloning into pESC-Leu with the corresponding restriction enzyme sites. ASS-66 and YSS-64 were created in the same manner. ASS-YSS and YSS-ASS were created in a similar manner using YSS-ASS-YSS or ASS-YSS-ASS as the templates for PCR, respectively. […]

[1] = test system: erg9 knockout yeast line CALI7-1; assay: erg9 complementation assay (restoration of ergosterol prototrophy); format: cell-based, S. cerevisiae; settings: construct expressed in CALI7-1; plates lacking ergosterol, 28° C., 72 h
From the text: Various squalene synthases were cloned into the yeast expression vector, Yep352-ADH1, including those from S. cerevisiae (YSS), B. braunii (BSS), N. benthamiana (TSS), A. thaliana (ASS), and R. norvegicus (RSS), as well as a C-terminal truncated form of YSS in which 24 amino acids comprising the ER membrane-spanning region were eliminated (YSStr). These constructs were transformed into the yeast line CALI7-1, which has been selected for high level FPP biosynthesis (10) and has an erg9 knockout mutation. It is unable to synthesize sterols de novo and is dependent on exogenous ergosterol for growth. […] To evaluate the encoded enzymes for catalytic activity, extracts prepared from the CALI7-1 yeast lines were assayed for squalene synthase enzyme activity. Constructs were also expressed in TN-7 yeast line and cultures were grown in liquid media with ergosterol and subsequently analyzed for squalene accumulation. Squalene levels were determined in TN-7 because in this yeast line, there is no possibility of squalene feeding into the ergosterol biosynthetic pathway. This allows for accurate comparisons of squalene production by the various SS enzymes.
The Cali7-1 yeast line, which has an erg9 deletion so that it cannot synthesize sterols de novo and requires exogenous ergosterol for growth, was used for these purposes (10). […]

Molecule	yeast growth with gene expression induced (BY4741 yeast)	ability to complement the erg9 deletion (growth without exogenous ergosterol) [1]	yeast growth with gene expression suppressed (BY4741 yeast; BY4741, glucose as carbon source)
KSKLAVQDPNFLKLNIQISKIEQFME (listed as Saccharomyces cerevisiae) [26 amino acid stretch of YSS, 26 amino acid linker-domain of squalene synthase from S. cerevisiae]	can inhibit the growth of yeast		
YSS: squalene synthase from S. cerevisiae (protein, UniProt P29704 1-444, looked up, full-length, squalene synthase from S. cerevisiae) MGKLLQLALHPVEMKAALKLKFCRTPLFSIYDQSTSPYLLHCFELLNLTSRSFAAVIRELHPELRNCVTLFYLILRALDTIEDDMSIEHDLKIDLLRHFHEKLLLTKWSFDGNAPDVKDRAVLTDFESILIEFHKLKPEYQEVIKEITEKMGNGMADYILDENYNLNGLQTVHDYDVYCHYVAGLVGDGLTRLIVIAKFANESLYSNEQLYESMGLFLQKTNIIRDYNEDLVDGRSFWPKEIWSQYAPQLKDFMKPENEQLGLDCINHLVLNALSHVIDVLTYLAGIHEQSTFQFCAIPQVMAIATLALVFNNREVLHGNVKIRKGTTCYLILKSRTLRGCVEIFDYYLRDIKSKLAVQDPNFLKLNIQISKIEQFMEEMYQDKLPPNVKPNETPIFLKVKERSRYDDELVPTQQEEEYKFNMVLSIILSVLLGFYYIYTLHRA		could restore ergosterol prototrophy	
YSS-92: the 92 C-terminal amino acids of YSS (protein, UniProt P29704 353-444, looked up, fragment) KSKLAVQDPNFLKLNIQISKIEQFMEEMYQDKLPPNVKPNETPIFLKVKERSRYDDELVPTQQEEEYKFNMVLSIILSVLLGFYYIYTLHRA	growth was severely arrested		grew normally

Source: patent US9821037B1, “Compounds and method of use as anti-infection compounds and therapeutic agents to regulate cholesterol metabolism” (University of Kentucky Research Foundation, priority 2013, dated 2017)
